Assay results taken from the supplement of paper PMC10598134.
± gives the standard deviation.

Experiment: collision cross section of modified peptide (TIMS, N2, iRT-aligned); higher = larger / more extended gas-phase ion
Method: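 1/K0 was aligned run-wise to spiked iRT peptides and converted to CCS in N2 (Mason-Schamp). Values are the mean of 1-3 technical replicates for the most abundant feature at each charge state.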

[1] = charge state: 2, modification: Hydroxyproline
[2] = charge state: 3, modification: Hydroxyproline
[3] = charge state: 2, modification: hydroxyisobutyryl
[4] = charge state: 2, modification: Acetyl (K)
[5] = charge state: 2, modification: GlyGly (K)
[6] = charge state: 3, modification: GlyGly (K)
[7] = charge state: 3, modification: Methyl (K)
[8] = charge state: 2, modification: Citrullination (R)
[9] = charge state: 3, modification: hydroxyisobutyryl
[10] = charge state: 2, modification: Methyl (R)
[11] = charge state: 3, modification: Methyl (R)
[12] = charge state: 2, modification: Trimethyl (K)
[13] = charge state: 3, modification: Trimethyl (K)
[14] = charge state: 2, modification: Nitro (Y)
[15] = charge state: 2, modification: Methyl (K)
[16] = charge state: 2, modification: Crotonyl
[17] = charge state: 2, modification: Phospho (Y)
[18] = charge state: 3, modification: Crotonyl
[19] = charge state: 2, modification: Succinyl
[20] = charge state: 2, modification: Glutarylation
[21] = charge state: 2, modification: HexNAc (ST)
[22] = charge state: 2, modification: Dimethyl (K)
[23] = charge state: 3, modification: Dimethyl (K)

Sequence: GLPGEKGER [_GLP(Hydroxyproline)GEKGER_]
- collision cross section [1]: 345.98 ± 0.8 Å²
- collision cross section [2]: 396.91 ± 2 Å²

Sequence: SKLLFSNTAAQK [_SK(hydroxyisobutyryl)LLFSNTAAQK_]
- collision cross section [3]: 404.35 ± 0.3 Å²

Sequence: YEEIVKEVSTYIK [_YEEIVK(Acetyl (K))EVSTYIK_]
- collision cross section [4]: 431.89 ± 3.1 Å²

Sequence: LFVGGIKEDTEEHHLR [_LFVGGIK(GlyGly (K))EDTEEHHLR_]
- collision cross section [5]: 499.18 Å²
- collision cross section [6]: 544.61 ± 1.1 Å²

Sequence: VLDSGAPIKIPVGPETLGR [_VLDSGAPIK(Methyl (K))IPVGPETLGR_]
- collision cross section [7]: 510.82 ± 2.8 Å²

Sequence: GFGRGGAESHTFK [_GFGR(Citrullination (R))GGAESHTFK_]
- collision cross section [8]: 413.94 ± 1 Å²
- collision cross section (charge state: 3, modification: Citrullination (R)): 465.74 ± 2.2 Å²

Sequence: PGGEGPQCEKTTDVK [_PGGEGPQCEK(hydroxyisobutyryl)TTDVK_]
- collision cross section [3]: 425.58 ± 0.3 Å²
- collision cross section [9]: 464.88 Å²

Sequence: GGSAGGRGFFR [_GGSAGGR(Methyl (R))GFFR_]
- collision cross section [10]: 365.18 ± 0.78 Å²
- collision cross section [11]: 426.87 ± 4.1 Å²

Sequence: FGRGTGLTQPSQR [_FGR(Citrullination (R))GTGLTQPSQR_]
- collision cross section [8]: 390.81 ± 0.16 Å²

Sequence: DASTLQSQKAEGTGDAK [_DASTLQSQK(Acetyl (K))AEGTGDAK_]
- collision cross section [4]: 431.11 ± 1.6 Å²
- collision cross section (charge state: 3, modification: Acetyl (K)): 508.84 ± 0.99 Å²

Sequence: IISSIEQKEENK [_IISSIEQK(Trimethyl (K))EENK_]
- collision cross section [12]: 411.54 ± 1.1 Å²
- collision cross section [13]: 448.49 ± 1.5 Å²

Sequence: SSGPGGQNVNKVNSK [_SSGPGGQNVNK(Biotin)VNSK_]
- collision cross section (charge state: 2, modification: Biotin): 422.28 ± 2 Å²
- collision cross section (charge state: 3, modification: Biotin): 467.62 ± 0.34 Å²

Sequence: DAIHFYNKSLAEHR [_DAIHFYNK(GlyGly (K))SLAEHR_]
- collision cross section [6]: 519.9 ± 0.35 Å²

Sequence: LLFSNTAAQKLR [_LLFSNTAAQK(Formyl)LR_]
- collision cross section (charge state: 2, modification: Formyl): 395.38 ± 0.55 Å²

Sequence: ASAISIKLGSSK [_ASAISIK(Malonyl)LGSSK_]
- collision cross section (charge state: 2, modification: Malonyl): 370.34 ± 0.77 Å²

Sequence: IYELAAGGTAVGTGLNTR [_IY(Nitro (Y))ELAAGGTAVGTGLNTR_]
- collision cross section [14]: 447.13 ± 1.1 Å²

Sequence: GFALVGVGSEASSKK [_GFALVGVGSEASSK(Methyl (K))K_]
- collision cross section [15]: 437.53 ± 2.3 Å²
- collision cross section [7]: 496.87 ± 4 Å²

Sequence: KFGVLSDNFK [_K(Crotonyl)FGVLSDNFK_]
- collision cross section [16]: 376.47 ± 0.8 Å²

Sequence: SLFFGGKGAPLQR [_SLFFGGK(Trimethyl (K))GAPLQR_]
- collision cross section [12]: 413.8 ± 0.016 Å²
- collision cross section [13]: 456.34 ± 1.8 Å²

Sequence: GDTGLPGPQGIPGGVGSPGR [_GDTGLPGPQGIPGGVGSP(Hydroxyproline)GR_]
- collision cross section [2]: 499.06 ± 39 Å²

Sequence: TTLTSDESVKDHTTAGR [_TTLTS(HexNAc (ST))DESVKDHTTAGR_]
- collision cross section (charge state: 3, modification: HexNAc (ST)): 545.39 ± 0.18 Å²

Sequence: SYSVGASGSSSR [_SY(Phospho (Y))SVGASGSSSR_]
- collision cross section [17]: 356.68 ± 0.65 Å²

Sequence: KYEEIDNAPEER [_K(Crotonyl)YEEIDNAPEER_]
- collision cross section [16]: 413.83 ± 0.55 Å²
- collision cross section [18]: 493.07 ± 1.6 Å²

Sequence: VFIGNLNTLVVKK [_VFIGNLNTLVVK(Succinyl)K_]
- collision cross section [19]: 423.07 ± 0.53 Å²
- collision cross section (charge state: 3, modification: Succinyl): 489.97 ± 1.6 Å²

Sequence: LGVATVAKGVCGACK [_LGVATVAK(hydroxyisobutyryl)GVCGACK_]
- collision cross section [3]: 419.46 ± 1.2 Å²

Sequence: TTEETSKPK [_TTEETSK(Acetyl (K))PK_]
- collision cross section [4]: 334.91 ± 0.21 Å²

Sequence: LQDVSGQLSSSKK [_LQDVSGQLSSSK(hydroxyisobutyryl)K_]
- collision cross section [3]: 404.16 ± 0.3 Å²
- collision cross section [9]: 470.99 ± 5.5 Å²

Sequence: LDEKENLSAK [_LDEK(Succinyl)ENLSAK_]
- collision cross section [19]: 369.34 ± 0.74 Å²

Sequence: VTPHPSPRGSPLPTPK [_VTPHPSPR(Methyl (R))GSPLPTPK_]
- collision cross section [11]: 512.12 ± 9.6 Å²

Sequence: YLHDESGLNR [_Y(Phospho (Y))LHDESGLNR_]
- collision cross section [17]: 372.11 ± 0.77 Å²
- collision cross section (charge state: 3, modification: Phospho (Y)): 460.83 ± 0.1 Å²

Sequence: SPDEAYAIAKK [_SPDEAYAIAK(Trimethyl (K))K_]
- collision cross section [12]: 381.12 ± 1.2 Å²
- collision cross section [13]: 449.09 Å²

Sequence: LLEQKTQESQK [_LLEQK(Trimethyl (K))TQESQK_]
- collision cross section [12]: 409.98 ± 2.2 Å²
- collision cross section [13]: 452.07 ± 1.5 Å²

Sequence: TFGKAAGPSLSHTSGGTQSK [_TFGK(GlyGly (K))AAGPSLSHTSGGTQSK_]
- collision cross section [6]: 526.57 ± 0.59 Å²

Sequence: SLFFGGKGAPLQR [_SLFFGGK(hydroxyisobutyryl)GAPLQR_]
- collision cross section [3]: 408.12 ± 0.55 Å²
- collision cross section [9]: 482.11 Å²

Sequence: VNALKNLQVK [_VNALK(Gluratylation)NLQVK_]
- collision cross section [20]: 376.79 ± 0.1 Å²

Sequence: ISPVEESEDVSNK [_ISPVEES(HexNAc (ST))EDVSNK_]
- collision cross section [21]: 415.06 ± 0.62 Å²

Sequence: GYDVIAQAQSGTGK [_GY(Nitro (Y))DVIAQAQSGTGK_]
- collision cross section [14]: 387.17 ± 0.17 Å²

Sequence: GDQGEPGPSGNPGK [_GDQGEPGPSGNP(Hydroxyproline)GK_]
- collision cross section [1]: 343.56 ± 0.79 Å²

Sequence: INNFSADIKDSK [_INNFSADIK(Acetyl (K))DSK_]
- collision cross section [4]: 398.34 ± 0.77 Å²

Sequence: LGNDFHTNKR [_LGNDFHTNK(Crotonyl)R_]
- collision cross section [16]: 379.22 ± 1.3 Å²
- collision cross section [18]: 445.34 ± 2 Å²

Sequence: GRGGAESHTFK [_GR(Methyl (R))GGAESHTFK_]
- collision cross section [10]: 352.3 ± 2.4 Å²
- collision cross section [11]: 441.34 ± 2.6 Å²

Sequence: GLPGEPGPRGLLGPK [_GLPGEP(Hydroxyproline)GPRGLLGPK_]
- collision cross section [1]: 409.23 ± 0.28 Å²

Sequence: SNEEGSEEKGPEVR [_SNEEGSEEK(Trimethyl (K))GPEVR_]
- collision cross section [12]: 400.43 Å²
- collision cross section [13]: 464.15 ± 1.8 Å²

Sequence: GTVPDDAVEALADSLGKK [_GTVPDDAVEALADSLGK(Dimethyl (K))K_]
- collision cross section [22]: 485.51 ± 1.7 Å²
- collision cross section [23]: 525.76 Å²

Sequence: VQGGALEDSQLVAGVAFKK [_VQGGALEDSQLVAGVAFK(Methyl (K))K_]
- collision cross section [15]: 497.72 Å²
- collision cross section [7]: 546.3 ± 1.2 Å²

Sequence: SSGPGGQNVNKVNSK [_SSGPGGQNVNK(Dimethyl (K))VNSK_]
- collision cross section [22]: 397.16 ± 1.7 Å²
- collision cross section [23]: 437.57 ± 2.1 Å²

Sequence: SVGGSGGGSFGDNLVTR [_SVGGSGGGSFGDNLVT(HexNAc (ST))R_]
- collision cross section [21]: 423.68 ± 0.13 Å²

Sequence: ANEKTESSSAQQVAVSR [_ANEK(GlyGly (K))TESSSAQQVAVSR_]
- collision cross section [5]: 467.32 ± 0.84 Å²
- collision cross section [6]: 498.93 ± 1.1 Å²

Sequence: DAEAAEATAEGALKAEK [_DAEAAEATAEGALK(GlyGly (K))AEK_]
- collision cross section [5]: 475 ± 1.6 Å²
- collision cross section [6]: 538.51 ± 1.1 Å²

Sequence: ILDLKTGTVK [_ILDLK(Gluratylation)TGTVK_]
- collision cross section [20]: 368.56 ± 0.72 Å²

Sequence: TTEETSKPK [_TTEETSK(hydroxyisobutyryl)PK_]
- collision cross section [3]: 347.15 ± 3.9 Å²

Sequence: SDDESSQKDIK [_SDDESSQK(Butyryl)DIK_]
- collision cross section (charge state: 2, modification: Butyryl): 378.95 ± 0.72 Å²

Sequence: GGPGSTLSFVGKR [_GGPGSTLSFVGK(Gluratylation)R_]
- collision cross section [20]: 392.32 ± 0.52 Å²
- collision cross section (charge state: 3, modification: Glutarylation): 441.96 ± 5.9 Å²

Sequence: DKALPLEAEVAPVK [_DK(Trimethyl (K))ALPLEAEVAPVK_]
- collision cross section [12]: 415.71 ± 1.1 Å²
- collision cross section [13]: 491.82 ± 2.4 Å²
